The values below come from the DeepSol protein solubility set.

The nature of the data set: soluble on expression in E. coli; label from the status in PepcDB or PDB records.
In the case of “MSLKSVIVPAPGKIEIREVETPVINAYQALVKTEMVALCNATDSKLIAGHFPGVDTYPLALGHENAGIVVAVGEKVRNFKVGDRAIGGLISDFGAQGINSGWGGFSEYVVVNDFEVLKEEGLATPEQGCWDSFEIQNSVPAHVQPEEAVISCTWREVLGAFKDFNLTPGKKVIVVGSGPVGLSFVKLGKLFGLGQIDIVDMLPAKLEVARRMGADNGYTPAEISTPEFIAAAGRSYDAVIDAVGLDVVVNSVLPLVKMGGDVCVYGVMTKNPTFDLSKAPYNFDLHMHQWPTRSEEKAAMTTLAQWIEEGTLSASDFITHRFKIEEIEEAFAAVKRGEVLKCVLTEGHHHHHH”, the “soluble on expression in E. coli” value is reported as “not soluble”.

As to “MSLKTIAINQYGSADEFTMVDMPTTEPQADEVQVAIHAFSLNPMDIAGRMGALSSPFTDLWAFPLVLGWDFAGVITKMGKAVTGFNIGDAVFGSAAPAHAANNGTYGEFITVNTKELAHLPAGLSFDQAAALPIAGLTAYYGMKHNLKLQSGQKILVQGGAGGVGLFAIQIAKAFGAYVATTASANHRDLLTRLGADEVIDYHETDPAAVLHDYDAVFDTVGDIDTGLKVLKADGQLATIAGQPTDEQQHDQQKKVAFQFTQGSSQDLADLAQLVVSGQVKLTVATLPFSVANVIKGHRSIESRHTTGKIVIHVTEGHHHHHH”, the “soluble on expression in E. coli” value is “not soluble”.

In the case of “MSLKVFYMNVVIITGAASGIGHALSQVCLSNGKTIVMVDKNQDKLHTEAQSFMTKFSPEHVICFACDVTQPSEVERLAEYSCKQLGQVDWIFNNAGIIGNLLPAWELQENDINQVMQVNLHGMLNIIRSFMPYLFKQNFRSHIINMASLYALCTGSQMAAYSMSKHAVLALSESLYFDLNRLKKPVDVSVVFPSFTDTSLLASSGKLNHSPIHNQLNNLLAHSRPAIEVAEHIVREVEQKRFYILPDKEVKGYCEDRTKAILLQENPHRNSVEQLMCSLLKRQSSEANEGHHHHHH”, the “soluble on expression in E. coli” value is recorded as “soluble”.

For the sequence “MSLKVREEKLRTIIEWSEKNEDVRVLLLTSSLVNPLALVDEFSDLDIEFVFEDNTNYISDKSWTLKFGNPIAMIEEDESCFNHKHAMKMLLYEDGVKVDFKLYSKSKFIKETQEKELPEDWDIGYKILIDKDGITKQMLKPTYQISIIKKPSEKEFQNLINDFWWDTTYVAKCLVRDEIFYAKFMSETVIRTEYLIPLIEWHIASEHNWNITTNKYGRLFKKYLNQEMWAKTEQTFSGSDIKENWTALFSMTDLVSEIGTELSKKLEYKYPDKLENDIRKYLAGLKPKTEGHHHHHH”, the “soluble on expression in E. coli” value is “soluble”.

Take “MSLKVSVIIPTYNERENLEELFSRIDNALQGLNYEIVVVDDDSPDRTWEKAQELSSKYPVKVIRRTKEKGLSSAVIRGFKEASGDVFVVMDADLQHPPEVIPKLIEAIKNGSDIAIGSRYVKGGKVENWPFYRKLISKGAIMVGRIALPKIRDIKDPVSGFFALRKEVVEGVELNPIGFKILMEILIKGKYSKVVEVPFTFGIRARGESKLKGKTIFEYLRHIYRLMKWEGEIDREGHHHHHH”: the “soluble on expression in E. coli” value is “soluble”.

As for “MSLKWSAIPFQTLYRSIESGEFDFDLFKEVLPDLQNLNLNTDKLKNNASRSQLEKGEIELSDGSTFKVNQEFIFEAISLSDELNLDEIVACELILSGDTTANNGKVQYFLRRQYILQIVSFIVNCFHEDTELYQELIKNGALVSNILSAFKFIHTQLSEIKQQINKAQILENYNALFQQNIKFRRDFLLREYDILSQILYGLVDKGAIMKNKDFILSLLHHVSELDSNDFFIIYYTPAFFHLFASLRVLPDADVKLLHSQFMKDLKDDSIYTKPVKVALIFIFFAYFIGWCKEDPKRRADTMDFKTDVDEPMTSAVELGAIEQILIFAADTSIVEQDKSMELFYDIRSLLERHIPRLIPKQLLDDEKIFSQTTNSTYNPASATDNMSGRGLWNPSYPGMMSTTGTARLNSMPNNVNEYSYTTIVLSDQTQEFFLSSFDDVLQTIITDCAFLLTKIKDAEEDSLLSGEDLTLDDISLKADLERFFLSIYFFYASRPEYSCTFWSDKESNAYGFIEWCSRCNDNLMRSCFYLMVSSLSFGPENALNVYHYFGENSSISWKNIAQCLSDYTKKISNFNSSLHKRQQFSESTHNDIDSTAVALEEGLNEEAVIFLSSLLTLVGSVTYQVDEDVKSSLSKVFSDVLFEFTKINTPLVGAAFKVISNLVPKLESSRTKFWSFLDSLIFKDSSLNYSSESYRNAFTNVLTKYSDVLGFLQLFHNLISIHSREGHHHHHH”, the “soluble on expression in E. coli” value is “not soluble”.

“MSLKYGGIIMKEILVIAPTKGTYEKSIHIVKKNKYKTIDVVFGNLKEGIPLAEKSINHGTRIIISRGGTYNMLKATYNIPIVEIKVDAYDIIKSYKEVKNSNEPFGIIGFNNVIYGFDIIEEILNKKITMIEIEKEEEIYDAIEKYRKKGINTYIGDTTVAHIVKRLNCKGILIESREENILRAIQQAEQILEATKDEQKRRLQIEAMTDFVHDGIITVDKNFKITLFNKSAEKIFGIKKENALYHNVVDVIPNTVLPQVVETMEPQIGEIQNIGSTKIITNRVPIIVDGQIQGAVSTFQDSKEISSFEHTIRRSLLSKGLSAEGHHHHHH”: the “soluble on expression in E. coli” value is “soluble”.

In the case of “MSLKYQLRFGGEGGQGVITAGEILAEAAIKEGRQAFKASTYTSQVRGGPTKVDIIIDDKEILFPYAVEGEVDFMLSTADKGYKGFRGGVKEGGIIVVEPNLVHPESEDYKKWQIFEIPIITIAKDEVGNVATQSVVALAIAAYMSKCIDLDVLKETMLHMVPAKTRDANAKAFDLGVKYATQAKPHEGHHHHHH”, the “soluble on expression in E. coli” value was “soluble”.

On to “MSLKYVNKVIVILGASFAGMTCAQKLRQLNPNWDIVLIDKEIHPDYVPNGLNWYYRHEISGLNQAMWQTEEEQRLQNIRCLFGLKVEKINKEDRELMLSDGSSVYYDQLICAMGSQAESTYIDGADAQGVLTTKTYATSQNAKQVLDKSHKVAVVGAGIIGLDIAYSLHESGKAVTLLEAQERPDFRHTDPDMSLPLLDAMAESKLHFFQNQKVEKITVTREEKLCLRTLTGDTFTVDAVILAVNFRPDSRLLTGLVDLSVDNSVVVNDYFQTSDPNIYAIGDLIWSYFKGLNSAYYMPLINQAIRSAQMLAYHLSGHAVPKLKITRATGSKHFGYYRANIGLTELEAGFYEDTVSVTYFPKEQYDLRIKLIANQKTGHLLGAQLISKENCLATANQLVQAISCDMTDFDLAFQDFIYTARESEMAYMLHQAAINLYEKRIGEGHHHHHH”, for which the “soluble on expression in E. coli” value was “soluble”.

Consider “MSLLCLFAVFAFSCNEEMERLLTDDYPESGTEYTTGHVLMVVIDGASGIAVNEAYNTRKAPVIRSMTDKSLFTFYGLADNEEGVSKERGWANLLTGTTKNGLDVNQGIDELETPSFLQRLKEADENLKVSFYSSDTEFFGAFGSVANTKRKTSADSETADALIAEINGETISDIVVAQFGGVQQTGEQYGFWSNETTPTSEVIDAIYNVDAFIGKIMKALEARSRYVQENWLVVITSSYGGVYEGNVTPASEGHHHHHH”, for which the “soluble on expression in E. coli” value is recorded as “soluble”.

As to “MSLLMKGTYCLIINCRGTERRIGSLGTVRFPPGFYVYVGSGFSSLEARIKRHLSSEKRRRWHIDHFLDGAEVECVLYTTDKRRLECAVSEKLHGEKSVRGFGCSDCSCKSHLHHFKNKNDATESVKRAFRELGAEVHEWGIEGHHHHHH”, the “soluble on expression in E. coli” value is “soluble”.

For the sequence “MSLLPTILTVDDEEMIRDLMVTALSREGYRCFQAGSAEEARSVLQNNKIDLAILDIMMPGLSGDDFLKELKVLSPETVVLMVTALSDTETAMKCIHLGAYDYILKPFDIDRVLLTIHNALEKQRLLAENREYQANLEKKVDEQTRQIRMAMEDLNLAYNHTLTALVRALDAREKETGSHSERVMTYTLLLGEAMGVPEKDLSVMARGALLHDIGKVGISDNILLKPAKLDEREWMEMMRHPQLGYEILSGIKFLKGPAEIVFAHHERFDGSGYPKGLSRSGIPLGARIFSLVDTLDAMTSDRPYRKALPFEAVTSEVRRCRGTQFDPEIVDIFLSIPRERWEVVGKRHFIVGEGHHHHHH”, the “soluble on expression in E. coli” value was “not soluble”.

In the case of “MSLLSKFKRNKHQQHLAQLPKISQSVDDVDFFYTPATFRETLLEKIASATQRICIVALYLEQDDGGKGILDALYAAKRQRPELDVRVLVDWHRAQRGRIGAAASNTNADWYCRLAQENPGIDVPVYGVPINTREALGVLHFKGFIIDDSVLYSGASLNDVYLHQHDKYRYDRYQLIRNRQMADIMFDWVTQNLMNGRGVNRLDNTQRPKSPEIKNDIRLYRQELRDASYHFQGDANDEQLSVTPLVGLGKSSLLNKTIFHLMPCAEHKLTICTPYFNLPAVLVRNIIQLLRDGKKVEIIVGDKTANDFYIPEDEPFKIIGALPYLYEINLRRFLSRLQYYVNTDQLVVRLWKDDDNTYHLKGMWVDDKWMLLTGNNLNPRAWRLDLENAILIHDPKQELAPQREKELELIRTHTTIVKHYRDLQSIADYPIKVRKLIRRLRRIRIDRLISRILEGHHHHHH”, the “soluble on expression in E. coli” value was “soluble”.

For “MSLLSSEGPIFYVQERIGQNYKPFNCIKFRTMVSNADEVLMQMMETSPQLRQEFESSFKLKKDPRITKIGQFLRITSLDEFPQFWNVLKGDMSVVGPRPLVAEELPKYGDHIEQVLTIRPGITGLWQVSGRNDIPYPRRVQIDLHYVKSRTLWLDLWIILKTIDVVIMPKNNGAYEGHHHHHH”, the “soluble on expression in E. coli” value is recorded as “soluble”.

Take “MSLLYKKHSLHNIGRWVTNNSFFRKSGRIAVSTFNVAKFGGTSVANFEAMSRCSAIIENNPQTRLVVSSACSGVTNLLVELANGVASTERRQAILQQLADIHYVIIDQLADPTRVEKEVKAVLDSVASAAEAASFQSSKKLTDHLVACGELISTYILTQLMRERGVDAVRFDIREVLRTDDHYGRAEPQLKEIAQLAKEKLVPLCEQYVVVTQGFIGSDAQGNTTTLGRGGSDYSAALIAEAVQASGLEIWTDVPGIYSTDPRIAPKAAPIPEISFSEASEMANFGAKILHPSTLLPAVRHGIPVFVGSSKEPEKGGTWIRKQVESAPLYRALALRCNQTMVTLRSAQMFHAYGFLAKVFEILAKHKISVDLITTSEISVSLTLDKTDTSGGAPELPEAVRAELEELCTVEVEYNLCLIALIGNKMKESRGYAKQVFSVLEDYNLRMICYGASAHNLCFLLHESVSKQAVQKLHKELFEQEEGHHHHHH”: the “soluble on expression in E. coli” value is listed as “soluble”.

Turning to “MSLMRDITPDLCDKYESQVTLLNLPLQNFGQRSAFWGEIVTVRCYHDNSKVRDVLSQNGKGKVLVVDGHGSCHKALMGDQLAILAIKNDWEGVIIYGAVRDVVAMSEMDLGIKALGTSPFKTEKRGAGQVNVTLTMQNQIVEPGDYLYADWNGILMSETALDVAEGGSHHHHHH”, the “soluble on expression in E. coli” value was “soluble”.

On to “MSLMSSRVTIFTSCNDAYIYLLREGNSQAFPNAVGSKMVNLNTIPPKNGRDYYIALGLEGSANKLGVGIVKHPLLPKHANSDLSYDCEAEMLSNIRDTYVTPPGEGFLPRDTARHHRNWCIRLIKQALAEADIKSPTLDIDVICFTKGPGMGAPLHSVVIAARTCSLLWDVPLVGVNHCIGHIEMGREITKAQNPVVLYVSGGNTQVIAYSEKRYRIFGETLDIAIGNCLDRFARTLKIPNEPSPGYNIEQLAKKAPHKENLVELPYTVKGMDLSMSGILASIDLLAKDLFKGNKKNKILFDKTTGEQKVTVEDLCYSLQENLFAMLVEITERAMAHVNSNQVLIVGGVGCNVRLQEMMAQMCKDRANGQVHATDNRFCIDNGVMIAQAGLLEYRMGGIVKDFSETVVTQKFRTDEVYAAWRDEGHHHHHH”, for which the “soluble on expression in E. coli” value is “not soluble”.

Turning to “MSLNARTNIALLANSSSPLHPLQELLAVAGYQCNVFHAGRDLIQGLGHDTYEMLLIDRELADISAIDVIRTVRAVRNRDVPIVIFASENNDDDLVEALDAGADDYVLRPLAARVLLARIAALRRRMSGTRLRGAMPLRAGPYELSNPGRYATLNGGRIPMTPKEFDLAMLMFANAGRILASRRIEHTIWGHDLPPYSRALAGLVSRMRRTLNLCAENGVTVSVVYAQGYRLDILDEGHHHHHH”, the “soluble on expression in E. coli” value is “not soluble”.
